Target: histone H2b (human, UniProt Q16778 1-126)
Test: EMSA

Does GGAGGAGGAGGAGGAG (ssDNA) [16-mer oligonucleotide] bind?
Result: binds

From article PMC2696559
